What was measured:
FMR1 (MBP fusion) [1] = target: T1, FMR1 (MBP fusion) (UniProt Q9NFU0 1-684); experiment: EMSA; EMSA: 10 mM HEPES pH 7.4, 50 mM KCl, 1 mM DTT (printed DDT), 1 mM EDTA, 0.05% Triton X-100, 5% glycerol, 10 ng/ul salmon DNA, 25 C, then 0.2% glutaraldehyde; SPR: 20 mM HEPES pH 7.4, 150 mM KCl, 1.5 mM MgCl2, 0.1% NP40, 25 C; pull-down: 10 mM Tris-HCl pH 7.5, 150 mM KCl, 1.5 mM MgCl2, 0.1% NP-40, 0.5 mM DTT, 4 C; details: protein: recombinant; label: biotin-16-UTP
FMR1 (MBP fusion) [2] = target: T1, FMR1 (MBP fusion); experiment: SPR; EMSA: 10 mM HEPES pH 7.4, 50 mM KCl, 1 mM DTT (printed DDT), 1 mM EDTA, 0.05% Triton X-100, 5% glycerol, 10 ng/ul salmon DNA, 25 C, then 0.2% glutaraldehyde; SPR: 20 mM HEPES pH 7.4, 150 mM KCl, 1.5 mM MgCl2, 0.1% NP40, 25 C; pull-down: 10 mM Tris-HCl pH 7.5, 150 mM KCl, 1.5 mM MgCl2, 0.1% NP-40, 0.5 mM DTT, 4 C; details: protein: recombinant; label: biotin-16-UTP

T1 sequence (Q9NFU0 whole entry, the tested form may be a part): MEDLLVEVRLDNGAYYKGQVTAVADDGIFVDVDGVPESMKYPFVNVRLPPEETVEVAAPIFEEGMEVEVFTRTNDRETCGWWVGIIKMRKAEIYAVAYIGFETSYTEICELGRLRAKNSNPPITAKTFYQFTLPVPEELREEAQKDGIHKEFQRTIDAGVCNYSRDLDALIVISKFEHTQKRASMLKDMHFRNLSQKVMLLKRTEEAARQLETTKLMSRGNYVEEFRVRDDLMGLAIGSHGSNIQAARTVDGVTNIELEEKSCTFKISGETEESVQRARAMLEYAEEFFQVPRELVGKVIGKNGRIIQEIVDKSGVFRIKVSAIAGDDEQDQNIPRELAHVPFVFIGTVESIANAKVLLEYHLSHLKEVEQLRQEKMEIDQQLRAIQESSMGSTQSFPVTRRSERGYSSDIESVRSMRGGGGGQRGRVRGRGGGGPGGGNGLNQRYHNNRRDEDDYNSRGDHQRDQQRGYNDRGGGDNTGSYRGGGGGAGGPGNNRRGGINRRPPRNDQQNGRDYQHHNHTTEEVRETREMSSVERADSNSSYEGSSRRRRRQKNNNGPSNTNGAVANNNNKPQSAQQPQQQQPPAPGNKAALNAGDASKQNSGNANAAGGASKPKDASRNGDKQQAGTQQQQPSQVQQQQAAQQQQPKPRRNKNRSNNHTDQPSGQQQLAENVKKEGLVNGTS

B1: AGACU (9x), m6A (ssRNA)
RNA: GGGAGACUAGACUAGACUGAGACUAGACUAGACUGAGACUAGACUAGACUGUAC
modifications: all A = m6A (m6ATP)
binding result (FMR1 (MBP fusion) [1]): binds

B2: mixed GGACU/AGACU/GAACU probe, m6A (ssRNA)
RNA: GGGGACUAGACUGAACUGGGACUAGACUGAACUGGGACUAGACUGAACUGUAC
modifications: all A = m6A (m6ATP)
Kd (FMR1 (MBP fusion) [2]): 80.7 nM

B3: mixed GGACU/AGACU/GAACU probe, unmodified (ssRNA)
RNA: GGGGACUAGACUGAACUGGGACUAGACUGAACUGGGACUAGACUGAACUGUAC
Kd (FMR1 (MBP fusion) [2]): 3600 nM
